Assay results published in patent publication US20110177070A1 (EMERGENT PRODUCT DEVELOPMENT SEATLLE, published 2011).

T1: recombinant human sIL-6R (human, UniProt P08887 20-358, limits assumed)
T1 construct: Bought soluble receptor; also called human soluble IL6R; IL6R alone
T1 sequence (looked up): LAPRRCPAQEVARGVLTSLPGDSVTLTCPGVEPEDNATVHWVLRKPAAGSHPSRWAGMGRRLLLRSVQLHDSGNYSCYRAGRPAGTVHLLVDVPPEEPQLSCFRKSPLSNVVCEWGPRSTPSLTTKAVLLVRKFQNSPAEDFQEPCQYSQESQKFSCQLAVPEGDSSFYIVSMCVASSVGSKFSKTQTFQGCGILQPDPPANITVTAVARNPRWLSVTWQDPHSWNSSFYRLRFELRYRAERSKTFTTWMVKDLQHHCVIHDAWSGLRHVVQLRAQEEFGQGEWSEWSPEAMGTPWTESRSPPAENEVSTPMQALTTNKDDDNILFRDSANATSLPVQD

B1: Xceptor fusion protein TRU(X6T)-1019 (Fc fusion)
chain: EVQLLESGGGLVQPGGSLRLSCAASGFTFSWYLMHWVRQAPGKGLEWVSGIWPSGGHTLYADSVKGRFTISRDNSKNTLYLQMNSLRAEDTAVYYCAREPLLWFGELSYNWFDPWGQGTLVTVSSGGGGSGGGGSGGGGSQDIQMTQSPSSVSASVGDRVTITCRASQGISSWLAWYQQKPGKAPKLLIYAASSLQSGVPSRFSGSGSGTDFTLTISSLQPEDFATYYCQQANSFPLTFGGGTKVEIKTGEPKSSDKTHTCPPCPAPEAAGAPSVFLFPPKPKDTLMISRTPEVTCVVVDVSHEDPEVKFNWYVDGVEVHNAKTKPREEQYNSTYRVVSVLTVLHQDWLNGKAYACAVSNKALPAPIEKTISKAKGQPREPQVYTLPPSRDELTKNQVSLTCLVKGFYPSDIAVEWESNGQPENNYKTTPPVLDSDGSFFLYSKLTVDKSRWQQGNVFSCSVMHEALHNHYTQKSLSLSPGQRHNNSSLNTRTQKARHSPNSLPAQVAFTPYAPEPGSTCRLREYYDQTAQMCCSKCSPGQHAKVFCTKTSDTVCDSCEDSTYTQLWNWVPECLSCGSRCSSDQVETQACTREQNRICTCRPGWYCALSKQEGCRLCAPLRKCRPGFGVARPGTETSDVVCKPCAPGTFSNTTSSTDICRPHQICNVVAIPGNASMDAVCTSTSPTRSMAPGAVHLPQPVSTRSQHTQPTPEPSTAPSTSFLLPMGPSPPAEGSTGD
B2: Xceptor fusion protein TRU(XT6)-1002 (Fc fusion)
chain: LPAQVAFTPYAPEPGSTCRLREYYDQTAQMCCSKCSPGQHAKVFCTKTSDTVCDSCEDSTYTQLWNWVPECLSCGSRCSSDQVETQACTREQNRICTCRPGWYCALSKQEGCRLCAPLRKCRPGFGVARPGTETSDVVCKPCAPGTFSNTTSSTDICRPHQICNVVAIPGNASMDAVCTSTSPTRSMAPGAVHLPQPVSTRSQHTQPTPEPSTAPSTSFLLPMGPSPPAEGSTGDTGEPKSSDKTHTCPPCPAPEAAGAPSVFLFPPKPKDTLMISRTPEVTCVVVDVSHEDPEVKFNWYVDGVEVHNAKTKPREEQYNSTYRVVSVLTVLHQDWLNGKAYACAVSNKALPAPIEKTISKAKGQPREPQVYTLPPSRDELTKNQVSLTCLVKGFYPSDIAVEWESNGQPENNYKTTPPVLDSDGSFFLYSKLTVDKSRWQQGNVFSCSVMHEALHNHYTQKSLSLSPGQRHNNSSLNTRTQKARHSPNSEVQLLESGGGLVQPGGSLRLSCAASGFTFSFYQMHWVRQAPGKGLEWVSGIYPSGGYTKYADSVKGRFTISRDNSKNTLYLQMNSLRAEDTAVYYCARDLGYGSSWYYFDYWGQGTLVTVSSGGGGSGGGGSGGGGSQSALTQPASVSGSPGQSITISCSGTDSDVGGYNHVSWYQQHPGKAPKLIIYDVDHRPSGISNRFSGSKSGNTASLTISGLQAEDEADYYCSSYRSGSTYVFGTGTKVTVL
notes: also called Xceptor TNFRSF1B::anti-HIL6
B3: Xceptor fusion protein TRU(XT6)-1019 (Fc fusion)
chain: LPAQVAFTPYAPEPGSTCRLREYYDQTAQMCCSKCSPGQHAKVFCTKTSDTVCDSCEDSTYTQLWNWVPECLSCGSRCSSDQVETQACTREQNRICTCRPGWYCALSKQEGCRLCAPLRKCRPGFGVARPGTETSDVVCKPCAPGTFSNTTSSTDICRPHQICNVVAIPGNASMDAVCTSTSPTRSMAPGAVHLPQPVSTRSQHTQPTPEPSTAPSTSFLLPMGPSPPAEGSTGDTGEPKSSDKTHTCPPCPAPEAAGAPSVFLFPPKPKDTLMISRTPEVTCVVVDVSHEDPEVKFNWYVDGVEVHNAKTKPREEQYNSTYRVVSVLTVLHQDWLNGKAYACAVSNKALPAPIEKTISKAKGQPREPQVYTLPPSRDELTKNQVSLTCLVKGFYPSDIAVEWESNGQPENNYKTTPPVLDSDGSFFLYSKLTVDKSRWQQGNVFSCSVMHEALHNHYTQKSLSLSPGQRHNNSSLNTRTQKARHSPNSEVQLLESGGGLVQPGGSLRLSCAASGFTFSWYLMHWVRQAPGKGLEWVSGIWPSGGHTLYADSVKGRFTISRDNSKNTLYLQMNSLRAEDTAVYYCAREPLLWFGELSYNWFDPWGQGTLVTVSSGGGGSGGGGSGGGGSQDIQMTQSPSSVSASVGDRVTITCRASQGISSWLAWYQQKPGKAPKLLIYAASSLQSGVPSRFSGSGSGTDFTLTISSLQPEDFATYYCQQANSFPLTFGGGTKVEIK
notes: as for B2
B4: Xceptor fusion protein TRU(XT6)-1058 (Fc fusion)
chain: LPAQVAFTPYAPEPGSTCRLREYYDQTAQMCCSKCSPGQHAKVFCTKTSDTVCDSCEDSTYTQLWNWVPECLSCGSRCSSDQVETQACTREQNRICTCRPGWYCALSKQEGCRLCAPLRKCRPGFGVARPGTETSDVVCKPCAPGTFSNTTSSTDICRPHQICNVVAIPGNASMDAVCTSTSPTRSMAPGAVHLPQPVSTRSQHTQPTPEPSTAPSTSFLLPMGPSPPAEGSTGDTGEPKSSDKTHTCPPCPAPEAAGAPSVFLFPPKPKDTLMISRTPEVTCVVVDVSHEDPEVKFNWYVDGVEVHNAKTKPREEQYNSTYRVVSVLTVLHQDWLNGKAYACAVSNKALPAPIEKTISKAKGQPREPQVYTLPPSRDELTKNQVSLTCLVKGFYPSDIAVEWESNGQPENNYKTTPPVLDSDGSFFLYSKLTVDKSRWQQGNVFSCSVMHEALHNHYTQKSLSLSPGQRHNNSSLNTRTQKARHSPNSEVQLLESGGGLVQPGGSLRLSCAASGFTFSMYTMHWVRQAPGKGLEWVSWISPSGGWTKYADSVKGRFTISRDNSKNTLYLQMNSLRAEDTAVYYCAVSPWGGPFDYWGQGTLVTVSSGGGGSGGGGSGGGGSQDIQMTQSPSTLSASVGDRVTITCRASQSISSWLAWYQQKPGKAPKLLIYKASTLESGVPSRFSAGGSGTEFTLTISSLQPDDFGTYYCQQYNSYSLTFGGGTKVEII

How the values were obtained:
recombinant human sIL-6R = molecular target: T1, recombinant human sIL-6R; test: sandwich ELISA: Xceptor captured on anti-human IgG-Fc, sIL-6R, anti-human IL-6R-biotin
Protocol: Added to each well of a 96-well plate was 100 μl goat anti-human IgG-Fc (ICN Pharmaceuticals, Costa Mesa, Calif.) from a 2 μg/ml solution in PBS, pH 7.2-7.4, The plates were covered, and incubated overnight at 4° C. After washing four times with PBS-T, 250 μl Blocking buffer (PBS-T with 3% BSA or 10% normal goat serum) was added to each well, the plate was covered, and incubated at room temperature for 2 hours (or at 4° C. overnight). After washing the plate three times with PBS-T, added in duplicate wells to the anti-human IgG-Fc coated plate was 100 μl/well Xceptor TNFRSF1B::anti-HIL6 samples, positive control anti-human IL-6R(R&D Systems, Minneapolis, Minn.) and negative controls human IgG or human gp130-Fc chimera (R&D Systems), each serially diluted three-fold in Working buffer starting at 300 ng/ml, the plate was covered, and incubated at room temperature for about 1 to 2 hours. After washing the plate five times with PBS-T, added in duplicate wells was 100 μl/well recombinant human sIL-6R(R&D Systems) from a 75 pM solution in Working buffer, the plate was covered, and incubated at room temperature for about 1 to 2 hours. After washing the plate five times with PBS-T, added 100 μl/well anti-human IL-6R-biotin (R&D Systems) from a 100 ng/ml solution in Working buffer, the plate was covered, and incubated at room temperature for about 1 to 2 hours. After washing the plate five times with PBS-T, 100 μl per well horse radish peroxidase-conjugated streptavidin (Zymed, San Francisco, Calif.) diluted 1:4,000 in Working buffer was added, the plate was covered, and incubated at room temperature for 30 minutes. After washing the plate six times with PBS-T, 100 μl per well 3,3,5,5-tetramentylbenzidine (TMB) substrate solution (Pierce, Rockford, Ill.) was added for about 3 to 5 minutes and then the reaction was stopped with 50 μl Stop buffer (1N H₂SO₄) per well. The absorbance of each well was read at 450 nm.

recombinant human TNF-α = molecular target: T2, recombinant human TNF-α (human, UniProt P01375 77-233); test: sandwich ELISA: Xceptor captured on anti-human IgG-Fc, 2 ng/ml TNF-α, anti-human TNF-α-biotin
T2 construct: also called rhTNF-α
Protocol: Added to each well of a 96-well plate was 100 μl goat anti-human IgG-Fc (ICN Pharmaceuticals, Costa Mesa, Calif.) from a 2 μg/ml solution in PBS, pH 7.2-7.4. The plate was covered, and incubated overnight at 4° C. After washing four times with PBS-T, 250 μl Blocking buffer was added to each well, the plate was covered, and incubated at room temperature for 2 hours (or at 4° C. overnight). After washing the plate three times with PBS-T, added in duplicate wells to the anti-human IgG-Fc coated plate was 100 μl/well Xceptor TNFRSF1B::anti-HIL6 samples, positive controls Enbrel® (etanercept) and recombinant human TNFR2 (TNFRSF1B)-Fc chimera (R&D Systems, Minneapolis, Minn.), and negative controls human IgG or human gp130-Fc chimera (R&D Systems), each serially diluted three-fold in Working buffer starting at 300 ng/ml, the plate was covered, and incubated at room temperature for about 1 to 2 hours. After washing the plate five times with PBS-T, added in duplicate wells was 100 μl/well recombinant human TNF-α (R&D Systems) from a 2 ng/ml solution in Working buffer, the plate was covered, and incubated at room temperature for about 1 to 2 hours. After washing the plate five times with PBS-T, added 100 μl/well anti-human TNF-α-biotin (R&D Systems) from a 200 ng/ml solution in Working buffer, the plate was covered, and incubated at room temperature for about 1 to 2 hours. After washing the plate five times with PBS-T, 100 μl per well horse radish peroxidase-conjugated streptavidin (Jackson ImmunoResearch, West Grove, Pa.) diluted 1:1,000 in Working buffer was added, the plate was covered, and incubated at room temperature for 30 minutes. After washing the plate six times with PBS-T, 100 μl per well 3,3,5,5-tetramentylbenzidine (TMB) substrate solution (Pierce, Rockford, Ill.) was added for about 3 to 5 minutes and then the reaction was stopped with 50 μl Stop buffer (1N H₂SO₄) per well. The absorbance of each well was read at 450 nm.

T2 sequence (P01375 77-233 limits assumed): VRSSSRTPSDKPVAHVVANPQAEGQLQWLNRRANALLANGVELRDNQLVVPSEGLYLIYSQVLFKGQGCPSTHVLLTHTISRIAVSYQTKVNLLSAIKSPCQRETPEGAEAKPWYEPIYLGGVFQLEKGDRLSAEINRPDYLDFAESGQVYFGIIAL

| Binder | binding result (recombinant human sIL-6R) | binding result (recombinant human TNF-α) |
| --- | --- | --- |
| B1 | no binding (tested: Xceptor from 300 ng/ml; sIL-6R 75 pM) | binds |
| B2 | no binding (tested: Xceptor from 300 ng/ml; sIL-6R 75 pM) | binds |
| B3 | no binding (tested: Xceptor from 300 ng/ml; sIL-6R 75 pM) | binds |
| B4 | no binding (tested: Xceptor from 300 ng/ml; sIL-6R 75 pM) | binds |
